# Assay results taken from PMC12912425, “Collagen-targeted tracers for molecular imaging of atrial fibrosis and sensitive detection of atrial fibrillation” (npj Cardiovascular Health, 2025).
# Assays:
# [1] = Blood clearance of Cy5.5-labeled tracers after IV injection; assay type: in vivo, mouse; settings: Cy5.5-conjugated tracer 0.5 mg/kg IV; mixed male/female 'AF + HF' and control mice, 28-31 weeks; blood NIR fluorescence at 2-4, 12, 240 min; one-phase decay fit; Mean±SEM, n=4 (EP-3533), n=8 (T-peptide)
# Procedure: ‘AF + HF’ mice and non-transgenic controls (28–31 weeks) were intravenously injected with Cy5.5-labeled T-peptide or EP-3533 (0.5 mg/kg), as described above. Blood samples (2.5 µl) were collected from the opposite tail vein at 2–4, 12 and 240 min, and diluted in 47.5 µl of citrated PBS (0.32% w/v sodium citrate). 50 µl samples were transferred into 96-well plates (Optiplate, black-walled, transparent bottom; PerkinElmer, MA, USA) and scanned on the Odyssey CLx NIRF scanner using the ‘Manual L1’ intensity and 3 mm focus offset settings. Following subtraction of unlabeled blood background, the total fluorescence per well was plotted against time. The blood fluorescence levels at t = 0 and half-life were extrapolated from a one-phase decay non-linear regression, and the data was presented as percentage from the value of t = 0[26].
# Mouse plasma stability = assay type: in vitro ADME; settings: Cy5.5-T-peptide 100 µg in 200 µL naïve C57BL/6 mouse plasma (citrated), 37 °C, acetonitrile precipitation, HPLC C18, 280 nm
# Procedure: Cy5.5-T-Peptide (100 µg, 10 µL in PBS) was added to 200 µL of naïve C57BL/6 mouse plasma and the sample was incubated at 37 °C over 4 h. Aliquots (40 µL) were taken from the mixture at 5, 10, 30, 60 and 240 min, and then added to 40 µL of acetonitrile. The formed precipitates were separated by centrifugation and the supernatant was analyzed by HPLC. The percentage of decomposition at each timepoint was then calculated from the chromatograms (Supplementary Fig. 1). The HPLC conditions were: Phenomenex Luna® 5 µm C18(2) 100 Å, LC Column 150 ×4.6 mm at a flow rate of 1 mL/min (Method: 5–95% buffer B to A over 20 min, λabs = 280 nm).
# [2] = system: MMP-2-degraded collagen IV
# Procedure: Ex vivo fluorescent imaging was performed according to our published protocol[26]. In brief, fluorescently-tagged EP-3533 or the T-peptide were injected intravenously into mice at 0.5 mg/kg via the tail vein. The S-peptide was delivered at 0.466 mg/kg, being the identical mole equivalent to the T-peptide (0.258 µmol/kg). Injections were performed by a person blinded to the administered substance. Animals were humanely euthanised 4 h post-injection by an overdose of ketamine (300 mg/kg) and xylazine (30 mg/kg) and perfused via the heart with 20 ml of PBS. The liver, lung, spleen, kidney, brain, thigh muscle and the heart were next harvested and the atria separated from the ventricles. Organs were then scanned on the Odyssey CLx NIRF 2-D scanner (Li-Cor Biosciences, NE, USA) at 169 µm resolution using the ‘Manual L1’ or ‘L2’ intensity and 0.5 mm focus offset settings. A noninjected mouse served for background correction. The mean fluorescence intensity value per pixel (1 pixel = 169 × 169 µm = 0.0285 mm^2) were then extracted from regions of interest using Image Studio 5.2 software (Li-Cor Biosciences).
# [3] = 'AF + HF' mice, Cy5.5 conjugates equimolar 0.258 µmol/kg IV, 4 h, ex vivo NIR, S-peptide signal corrected for brightness, n=5 per group
substance,measurement,setting,value
TLTYTWS [Cy5.5-T-peptide],blood (circulating) half-life,[1],9.23 ± 0.9 min
same,tracer remaining intact after 60 min in mouse plasma,Mouse plasma stability; 60 min,60%
same,tracer remaining intact after 4 h in mouse plasma,Mouse plasma stability; 240 min,22%
same,T-peptide binding in atria relative to the S-peptide,[2]; [3],1.72 fold
same,T-peptide binding in ventricles relative to the S-peptide,[2]; [3],1.78 fold
same,atria/ventricles retention in 'AF + HF' mice,"[2]; mouse, in vivo",2.61 fold
